According to patent US20220177564A1 (Ablynx, published 2022):
Where a chain is given by its changes, count along the chain named. In names and notes the source's numbering stands. Like-named read-outs stand apart in the source and are kept apart here. Each block holds one binder with its values, some of them ahead of it.

How the values were obtained:
human IL-13 [1] = target: T1, human IL-13 (human, UniProt P35225 35-146, limits assumed); test: AlphaScreen; hIL-13 to hIL-13Rα1-hFc
T1 construct: Biotinylated in the binary complex AlphaScreen; Different commercial lots are kept as one molecule; also called hIL-13; hIL13

human IL-13 [2] = target: T1, human IL-13; test: cell-based or functional assay
human IL-13 [3] = target: T1, human IL-13; test: AlphaScreen; hIL-13:hIL-13Rα1:hIL4Rα ternary complex
cyno TSLP-Fc [4] = target: T2, cyno TSLP-Fc (cynomolgus monkey, UniProt A0A7N9CAT7 29-159); test: SPR, cyno TSLP-hFc
T2 construct: also called cyno TSLP-hFc; not shown: human Fc part and any linker not described

cyno TSLP [5] = target: T3, cyno TSLP (cynomolgus monkey, UniProt A0A7N9CAT7 29-159); test: SPR, cyno TSLP
T3 construct: also called cynomolgus monkey TSLP

human TSLP [6] = target: T4, human TSLP (human, UniProt Q969D9 29-159); test: SPR, hTSLP
T4 construct: also called hTSLP; hTSP

hTSLP-Fc [7] = target: T5, hTSLP-Fc (human, UniProt Q969D9 29-159); test: SPR, hTSLP-hFc
T5 construct: also called hTSLP-hFc; hTLSP-Fc; not shown: human Fc part and any linker not described

cyno TSLP-Fc [8] = target: T2, cyno TSLP-Fc; test: SPR; the KD column is on cyno TSLP-hFc
human IL-13 [9] = target: T1, human IL-13; test: cell-based or functional assay; remark: listed apart in the source
human IL-13 [10] = target: T1, human IL-13; test: SPR, hIL-13 from Peprotech (cat nr 200-13)
human IL-13 [11] = target: T1, human IL-13; test: AlphaScreen, purified ISVD; hIL-13 to hIL-13Rα1-hFc
human IL-13 [12] = target: T1, human IL-13; test: SPR, hIL-13
human IL-13 [13] = target: T1, human IL-13; test: cell-based or functional assay; remark: listed apart in the source
cyno IL13-Fc = target: T6, cyno IL13-Fc (cynomolgus monkey, UniProt Q0PW92 11-132); test: SPR (ProteOn XPR36), periplasmic extract over immobilised Fc fusion
T6 construct: not shown: Fc part and any linker not described

hIL13-Fc = target: T7, hIL13-Fc (human, UniProt P35225 25-146); test: as above
T7 construct: not shown: Fc part and any linker not described

human IL-13 [14] = target: T1, human IL-13; test: AlphaScreen, purified ISVD; hIL-13:hIL-13Rα1:hIL4Rα ternary complex
human IL-13 [15] = target: T1, human IL-13; test: SPR, hIL-13 from Peprotech (cat nr 200-13); remark: listed apart in the source
cyno IL-13 [16] = target: T8, cyno IL-13 (cynomolgus monkey, UniProt Q0PW92 21-132); test: cell-based or functional assay
human IL-13 [17] = target: T1, human IL-13; test: cell-based or functional assay; remark: listed apart in the source
cyno IL-13 [18] = target: T8, cyno IL-13; test: cell-based or functional assay; remark: listed apart in the source
cyno TSLP [19] = target: T3, cyno TSLP; test: SPR, cyno TSLP; remark: listed apart in the source
human TSLP [20] = target: T4, human TSLP; test: AlphaScreen; hTSLP:hTSLPR:hIL7Rα ternary complex
human TSLP [21] = target: T4, human TSLP; test: SPR, hTSLP; remark: listed apart in the source
cyno TSLP-Fc [22] = target: T2, cyno TSLP-Fc; test: SPR (BIAcore T100), Fc fusion captured by anti-huIgG
hTSLP-Fc [23] = target: T5, hTSLP-Fc; test: as above
human TSLP [24] = target: T4, human TSLP; test: AlphaScreen, purified ISVD; hTSLP to hTSLPR
cyno TSLP-Fc [25] = target: T2, cyno TSLP-Fc; test: SPR (ProteOn XPR36), periplasmic extract over immobilised Fc fusion
hTSLP-Fc [26] = target: T5, hTSLP-Fc; test: as above
human TSLP [27] = target: T4, human TSLP; test: AlphaScreen, purified ISVD; hTSLP:hTSLPR:hIL7Rα ternary complex
cyno TSLP-Fc [28] = target: T2, cyno TSLP-Fc; test: cell-based or functional assay
hTSLP-Fc [29] = target: T5, hTSLP-Fc; test: cell-based or functional assay

% inhibition (human IL-13 [1]): 84%
IC50 (human IL-13 [1]): 0.27 nM
IC50, TF1 proliferation assay, 200 pM hIL13 (human IL-13 [2]): 9.4e-08 M
% inhibition (human IL-13 [3]): 98%
IC50 (human IL-13 [3]): 4.8 nM
B1: F010700014 (VHH)
chain: EVQLVESGGGLVQAGGSLRLSCAASGRTFSSYRMGWFRQAPGKEREFVAALSGDGYSTYTANSVNSRFTISRDNAKNTVYLQMNSLKPEDTAIYYCAAKLQYVSGWSYDYPYWGQGTLVTVSSGGGGSGGGGSGGGGSGGGGSGGGGSGGGGSGGGGSEVQLVESGGGLVQAGGSLRLSCAASGRTFSSYRMGWFRQAPGKEREFVAALSGDGYSTYTANSVNSRFTISRDNAKNTVYLQMNSLKPEDTAIYYCAAKLQYVSGWSYDYPYWGQGTLVTVSS
notes: Bivalent anti-IL-13 construct of two VHHs, Pichia pastoris, FLAG3-HIS6-tagged; also called F0107004B02-35GS-F0107004B02; not shown: FLAG3-HIS6 tag

Kd (cyno TSLP-Fc [4]): 3.3 nM
koff (cyno TSLP [5]): 0.0018 s⁻¹
koff (human TSLP [6]): 7.7e-05 s⁻¹
Kd (hTSLP-Fc [7]): 0.038 nM
fold lower affinity against parental ISVD F0107529F10 (cyno TSLP-Fc [8]): 2 fold
B2: F010704099 (VHH)
VHH: EVQLVESGGGLVQPGGSLRLSCAASGFTFADYDYDIGWFRQAPGKEREGVSCISNRDGSTYYADSVKGRFTISRDNSKNTVYLQMNSLRPEDTAVYYCAVEIHCDDYGVENFDFDPWGQGTLVTVSS
notes: E. coli, IMAC; also called F0107529F10 (A14P, T60A, S71R, A74S, S79Y, K83R)

% inhibition (human IL-13 [1]): 99%
IC50 (human IL-13 [1]): 0.13 nM
IC50, TF1 proliferation assay, 200 pM hIL13 (human IL-13 [2]): 1.2e-08 M
% inhibition (human IL-13 [3]): 100%
IC50 (human IL-13 [3]): 3.4 nM
B3: F010700003 (bispecific antibody)
chain: EVQLVESGGGLVQPGGSLRLSCAASGFTFNNYAMKWVRQAPGKGLEWVSSITTGGGSTDYADSVKGRFTISRDNRKNTLYLQMNSLKPEDTAVYYCANVPFGYYSEHFSGLSFDYRGQGTLVTVSSGGGGSGGGGSGGGGSGGGGSGGGGSGGGGSGGGGSEVQLVESGGGLVQAGGSLRLSCAASGRTFSSYRMGWFRQAPGKEREFVAALSGDGYSTYTANSVNSRFTISRDNAKNTVYLQMNSLKPEDTAIYYCAAKLQYVSGWSYDYPYWGQGTLVTVSS
notes: Biparatopic anti-IL-13 construct of two VHHs, expressed in Pichia pastoris as FLAG3-HIS6-tagged protein; also called F0107004B06-35GS-F0107004B02; not shown: FLAG3-HIS6 tag

IC50 (nM) Eotaxin release assay (human IL-13 [9]): 47 nM
Kd (human IL-13 [10]): 34 nM
koff (human IL-13 [10]): 0.0012 s⁻¹
kon (human IL-13 [10]): 35000 M⁻¹ s⁻¹
B4: F027100019 (VHH)
VHH: DVQLVESGGGVVQPGGSLRLSCAASGRTFSSYRMGWFRQAPGKEREFVAALSGDGYSTYTANSVKGRFTISRDNSKNTVYLQMNSLRPEDTALYYCAAKLQYVSGWSYDYPYWGQGTLVTVSS
notes: Expressed in E. coli, purified by IMAC; also called F0107004B02 (E1D, L11V, A14P, N64K, S65G, A74S, K83R, I89L)

IC50 (human IL-13 [11]): 61 nM
Kd (human IL-13 [12]): 26 nM
koff (human IL-13 [12]): 0.0033 s⁻¹
kon (human IL-13 [12]): 250000 M⁻¹ s⁻¹
IC50, IL-13-induced TF-1 proliferation assay (human IL-13 [13]): 10 µM
koff (cyno IL13-Fc): 0.0089 s⁻¹
koff (hIL13-Fc): 0.0063 s⁻¹
IC50 (human IL-13 [14]): 6.7 nM
B5: F0107004B06 (VHH)
VHH: EVQLVESGGGLVQPGGSLRLSCAASGFTFNNYAMKWVRQAPGKGLEWVSSITTGGGSTDYADSVKGRFTISRDNRKNTLYLQMNSLKPEDTAVYYCANVPFGYYSEHFSGLSFDYRGQGTLVTVSS
notes: Wild-type anti-IL-13 ISVD; also called F010704B06; F107004B06; not shown: c-myc, His6 tag of the purified protein

Kd (human IL-13 [15]): 27 nM
koff (human IL-13 [15]): 0.0075 s⁻¹
kon (human IL-13 [15]): 280000 M⁻¹ s⁻¹
B6: F027100183 (VHH)
VHH: B5 VHH with L11V, R75S, K87R, V93L
notes: E. coli, IMAC; also called F0107004B06 (L11V, R74S, K83R, V89L)

% inhibition (human IL-13 [1]): 99%
IC50 (human IL-13 [1]): 0.31 nM
IC50, TF1 proliferation assay, 200 pM hIL13 (human IL-13 [2]): 2e-11 M
IC50, TF1 proliferation assay, 200 pM cyno IL13 (cyno IL-13 [16]): 2.5e-10 M
% inhibition (human IL-13 [3]): 100%
IC50 (human IL-13 [3]): 3 nM
IC50, IL-13 induced A549 eotaxin release assay (human IL-13 [17]): 210 pM
IC50, IL-13 induced A549 eotaxin release assay (cyno IL-13 [18]): 150 pM
B7: F010700029 (bispecific antibody)
chain: EVQLVESGGGLVQAGGSLRLSCAASGRTFSSYRMGWFRQAPGKEREFVAALSGDGYSTYTANSVNSRFTISRDNAKNTVYLQMNSLKPEDTAIYYCAAKLQYVSGWSYDYPYWGQGTLVTVSSGGGGSGGGGSGGGGSGGGGSGGGGSGGGGSGGGGSEVQLVESGGGLVQPGGSLRLSCAASGFTFNNYAMKWVRQAPGKGLEWVSSITTGGGSTDYADSVKGRFTISRDNRKNTLYLQMNSLKPEDTAVYYCANVPFGYYSEHFSGLSFDYRGQGTLVTVSS
notes: Biparatopic anti-IL-13 construct of two VHHs, Pichia pastoris, FLAG3-HIS6-tagged; also called F0107004B02-35GS-F0107004B06; not shown: FLAG3-HIS6 tag

koff (cyno TSLP [19]): 0.0016 s⁻¹
IC50 (human TSLP [20]): 0.27 nM
koff (human TSLP [21]): 6.2e-05 s⁻¹
B8: F010704076 (VHH)
VHH: EVQLVESGGGLVQPGGSLRLSCAASGSGFGVNILYWYRQAAGIERELIASITSGGITNYVDSVKGRFTISRDNSENTMYLQMNSLRAEDTGVYYCASRNIFDGTTEWGQGTLVTVSS
notes: E. coli, IMAC; also called F0107501A02 (A14P, E16G, A74S, K83R)

Kd (cyno TSLP-Fc [22]): 25 nM
koff (cyno TSLP-Fc [22]): 0.0018 s⁻¹
kon (cyno TSLP-Fc [22]): 73000 M⁻¹ s⁻¹
Kd (hTSLP-Fc [23]): 0.51 nM
koff (hTSLP-Fc [23]): 5.7e-05 s⁻¹
kon (hTSLP-Fc [23]): 110000 M⁻¹ s⁻¹
IC50 (human TSLP [24]): 0.3 nM
koff (cyno TSLP-Fc [25]): 0.00066 s⁻¹
koff (hTSLP-Fc [26]): 3.6e-05 s⁻¹
IC50 (human TSLP [27]): 0.35 nM
koff (cyno TSLP [19]): 0.0015 s⁻¹
IC50 (human TSLP [20]): 0.28 nM
koff (human TSLP [21]): 5.4e-05 s⁻¹
IC50, TSLP-induced BaF3 cell proliferation assay (cyno TSLP-Fc [28]): > 1000 nM
IC50, TSLP-induced BaF3 cell proliferation assay (hTSLP-Fc [29]): > 1000 nM
B9: F0107501A02 (VHH)
VHH: B8 VHH with P14A, G16E, S74A, R86K
notes: Wild-type anti-TSLP ISVD; not shown: c-myc, His6 tag of the purified protein

koff (cyno TSLP [19]): 0.0043 s⁻¹
koff (human TSLP [21]): 0.00012 s⁻¹
B10: F027400160 (VHH)
VHH: B8 VHH with L11V, V92L
notes: E. coli, IMAC; also called F0107501A02 (L11V, A14P, E16G, A74S, K83R, V89L)

IC50, TF1 proliferation assay, 200 pM hIL13 (human IL-13 [2]): 1e-07 M
% inhibition (human IL-13 [3]): 99%
IC50 (human IL-13 [3]): 0.66 nM
B11: F010700031 (VHH)
chain: EVQLVESGGGLVQPGGSLRLSCAASGFTFNNYAMKWVRQAPGKGLEWVSSITTGGGSTDYADSVKGRFTISRDNRKNTLYLQMNSLKPEDTAVYYCANVPFGYYSEHFSGLSFDYRGQGTLVTVSSGGGGSGGGGSGGGGSGGGGSGGGGSGGGGSGGGGSEVQLVESGGGLVQPGGSLRLSCAASGFTFNNYAMKWVRQAPGKGLEWVSSITTGGGSTDYADSVKGRFTISRDNRKNTLYLQMNSLKPEDTAVYYCANVPFGYYSEHFSGLSFDYRGQGTLVTVSS
notes: Bivalent anti-IL-13 construct of two VHHs, Pichia pastoris, FLAG3-HIS6-tagged; also called F0107004B06-35GS-F0107004B06; not shown: FLAG3-HIS6 tag
